Positions of bridges follow the written chain, without caps; N, C: chain ends. No end group written: not given here. COCH2 = acetyl group that carries the bridge

In the test the target is T1, Recombinant Human FGFR1 alpha (IIIc) Fc Chimera Protein (Homo sapiens, UniProt P11362).
T1 construct: purchased R&D systems 658-FR-050
T1 sequence (P11362 with tags, fused parts or gaps limits assumed): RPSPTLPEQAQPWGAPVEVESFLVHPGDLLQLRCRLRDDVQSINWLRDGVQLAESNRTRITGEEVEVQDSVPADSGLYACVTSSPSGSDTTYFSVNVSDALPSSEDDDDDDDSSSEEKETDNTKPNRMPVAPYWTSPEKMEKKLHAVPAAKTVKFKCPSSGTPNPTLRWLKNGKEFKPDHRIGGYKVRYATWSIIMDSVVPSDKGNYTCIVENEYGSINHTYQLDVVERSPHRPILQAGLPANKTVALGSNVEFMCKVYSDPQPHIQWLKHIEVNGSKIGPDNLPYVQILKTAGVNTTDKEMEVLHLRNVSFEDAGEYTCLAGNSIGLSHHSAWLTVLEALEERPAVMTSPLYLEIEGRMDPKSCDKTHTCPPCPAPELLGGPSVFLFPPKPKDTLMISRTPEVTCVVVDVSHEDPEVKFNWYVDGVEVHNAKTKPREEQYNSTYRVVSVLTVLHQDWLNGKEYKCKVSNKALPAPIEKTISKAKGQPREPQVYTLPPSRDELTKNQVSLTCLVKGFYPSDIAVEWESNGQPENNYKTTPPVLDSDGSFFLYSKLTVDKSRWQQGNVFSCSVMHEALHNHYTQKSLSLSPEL
In words: ELISA binding affinity of enzymatically synthesized peptide to FGFR. The settings on record: ELISA luminescence signal at 10 nmol/L peptide, SEQ ID NO: 239 standardized to 1; enzyme synthesis product. A digest of the protocol:
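Cell-free PUREfrex-translated cyclic peptides (Myc/HiBiT-tagged, quantified by HiBiT luminescence) bound 3 h at room temperature to immobilized FGFR1α(IIIc)-Fc, detected with anti-Myc and chemiluminescence. FGFR-specific signal at 10 nmol/L normalized to a reference cyclic peptide and graded A–D.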
For the substance “181 (ICVYTFDAHAHSLVAALTK(COCH2)I; thioether 2-19 (inferred)) [compound 181]”, the “Evaluation result of binding affinity to FGFR” value (“Evaluation result” below) was “B (0.5 or more and less than 0.7)”.

Regarding “182 (ICVYTFDAHAHSLFAALTK(COCH2)I; thioether 2-19 (inferred)) [compound 182]”, the “Evaluation result” value is “C (0.1 or more and less than 0.5)”.

With “183 (ICVYTFDAHAHSLYAALTK(COCH2)I; thioether 2-19 (inferred)) [compound 183]”, the “Evaluation result” value is “B (0.5 or more and less than 0.7)”.

With “184 (ICVYTFDAHAHSLWAALTK(COCH2)I; thioether 2-19 (inferred)) [compound 184]”, the “Evaluation result” value was “C (0.1 or more and less than 0.5)”.

Turning to “185 (ICVYTFDAHAHSLNAALTK(COCH2)I; thioether 2-19 (inferred)) [compound 185]”, the “Evaluation result” value is given as “A (0.7 or more)”.

On to “186 (ICVYTFDAHAHSLQAALTK(COCH2)I; thioether 2-19 (inferred)) [compound 186]”, for which the “Evaluation result” value is “A (0.7 or more)”.

Regarding “187 (ICVYTFDAHAHSLSAALTK(COCH2)I; thioether 2-19 (inferred)) [compound 187]”, the “Evaluation result” value was “A (0.7 or more)”.

Consider “188 (ICVYTFDAHAHSLTAALTK(COCH2)I; thioether 2-19 (inferred)) [compound 188]”, for which the “Evaluation result” value is reported as “A (0.7 or more)”.

Take “189 (ICVYTFDAHAHSLDAALTK(COCH2)I; thioether 2-19 (inferred)) [compound 189]”: the “Evaluation result” value was “A (0.7 or more)”.

Turning to “190 (ICVYTFDAHAHSLEAALTK(COCH2)I; thioether 2-19 (inferred)) [compound 190]”, the “Evaluation result” value is given as “A (0.7 or more)”.

As for “191 (ICVYTFDAHAHSLRAALTK(COCH2)I; thioether 2-19 (inferred)) [compound 191]”, the “Evaluation result” value is “B (0.5 or more and less than 0.7)”.

Turning to “192 (ICVYTFDAHAHSLHGALTK(COCH2)I; thioether 2-19 (inferred)) [compound 192]”, the “Evaluation result” value is “A (0.7 or more)”.

Consider “193 (ICVYTFDAHAHSLHLALTK(COCH2)I; thioether 2-19 (inferred)) [compound 193]”, for which the “Evaluation result” value is “C (0.1 or more and less than 0.5)”.

As to “194 (ICVYTFDAHAHSLHIALTK(COCH2)I; thioether 2-19 (inferred)) [compound 194]”, the “Evaluation result” value is “C (0.1 or more and less than 0.5)”.

As for “195 (ICVYTFDAHAHSLHVALTK(COCH2)I; thioether 2-19 (inferred)) [compound 195]”, the “Evaluation result” value is “C (0.1 or more and less than 0.5)”.

“196 (ICVYTFDAHAHSLHFALTK(COCH2)I; thioether 2-19 (inferred)) [compound 196]”: the “Evaluation result” value is “C (0.1 or more and less than 0.5)”.

Take “197 (ICVYTFDAHAHSLHYALTK(COCH2)I; thioether 2-19 (inferred)) [compound 197]”: the “Evaluation result” value is “C (0.1 or more and less than 0.5)”.

“198 (ICVYTFDAHAHSLHWALTK(COCH2)I; thioether 2-19 (inferred)) [compound 198]”: the “Evaluation result” value is “C (0.1 or more and less than 0.5)”.

As for “199 (ICVYTFDAHAHSLHNALTK(COCH2)I; thioether 2-19 (inferred)) [compound 199]”, the “Evaluation result” value is on record as “A (0.7 or more)”.

“200 (ICVYTFDAHAHSLHQALTK(COCH2)I; thioether 2-19 (inferred)) [compound 200]”: the “Evaluation result” value is given as “A (0.7 or more)”.

“201 (ICVYTFDAHAHSLHSALTK(COCH2)I; thioether 2-19 (inferred)) [compound 201]”: the “Evaluation result” value is “A (0.7 or more)”.

For “202 (ICVYTFDAHAHSLHTALTK(COCH2)I; thioether 2-19 (inferred)) [compound 202]”, the “Evaluation result” value is on record as “A (0.7 or more)”.

For the substance “203 (ICVYTFDAHAHSLHDALTK(COCH2)I; thioether 2-19 (inferred)) [compound 203]”, the “Evaluation result” value is on record as “A (0.7 or more)”.

Take “204 (ICVYTFDAHAHSLHEALTK(COCH2)I; thioether 2-19 (inferred)) [compound 204]”: the “Evaluation result” value was “A (0.7 or more)”.

As to “205 (ICVYTFDAHAHSLHRALTK(COCH2)I; thioether 2-19 (inferred)) [compound 205]”, the “Evaluation result” value is recorded as “A (0.7 or more)”.

Turning to “206 (ICVYTFDAHAHSLHHALTK(COCH2)I; thioether 2-19 (inferred)) [compound 206]”, the “Evaluation result” value was “A (0.7 or more)”.

For “207 (ICVYTFDAHAHSLHAILTK(COCH2)I; thioether 2-19 (inferred)) [compound 207]”, the “Evaluation result” value is “C (0.1 or more and less than 0.5)”.

Take “208 (ICVYTFDAHAHSLHAVLTK(COCH2)I; thioether 2-19 (inferred)) [compound 208]”: the “Evaluation result” value is “C (0.1 or more and less than 0.5)”.

On to “209 (ICVYTFDAHAHSLHASLTK(COCH2)I; thioether 2-19 (inferred)) [compound 209]”, for which the “Evaluation result” value was “C (0.1 or more and less than 0.5)”.

For “210 (ICVYTFDAHAHSLHAAITK(COCH2)I; thioether 2-19 (inferred)) [compound 210]”, the “Evaluation result” value is “C (0.1 or more and less than 0.5)”.

“211 (ICVYTFDAHAHSLHAAVTK(COCH2)I; thioether 2-19 (inferred)) [compound 211]”: the “Evaluation result” value is “C (0.1 or more and less than 0.5)”.

As to “212 (ICVYTFDAHAHSLHAAFTK(COCH2)I; thioether 2-19 (inferred)) [compound 212]”, the “Evaluation result” value is “C (0.1 or more and less than 0.5)”.

On to “213 (ICVYTFDAHAHSLHAATTK(COCH2)I; thioether 2-19 (inferred)) [compound 213]”, for which the “Evaluation result” value is “C (0.1 or more and less than 0.5)”.

“214 (ICVYTFDAHAHSLHAALAK(COCH2)I; thioether 2-19 (inferred)) [compound 214]”: the “Evaluation result” value was “C (0.1 or more and less than 0.5)”.

For the substance “215 (ICVYTFDAHAHSLHAALGK(COCH2)I; thioether 2-19 (inferred)) [compound 215]”, the “Evaluation result” value was “C (0.1 or more and less than 0.5)”.

For “216 (ICVYTFDAHAHSLHAALPK(COCH2)I; thioether 2-19 (inferred)) [compound 216]”, the “Evaluation result” value was “C (0.1 or more and less than 0.5)”.

With “217 (ICVYTFDAHAHSLHAALVK(COCH2)I; thioether 2-19 (inferred)) [compound 217]”, the “Evaluation result” value is “C (0.1 or more and less than 0.5)”.

On to “218 (ICVYTFDAHAHSLHAALFK(COCH2)I; thioether 2-19 (inferred)) [compound 218]”, for which the “Evaluation result” value is “C (0.1 or more and less than 0.5)”.

Consider “219 (ICVYTFDAHAHSLHAALNK(COCH2)I; thioether 2-19 (inferred)) [compound 219]”, for which the “Evaluation result” value is “A (0.7 or more)”.

For the substance “220 (ICVYTFDAHAHSLHAALQK(COCH2)I; thioether 2-19 (inferred)) [compound 220]”, the “Evaluation result” value was “A (0.7 or more)”.

For the substance “221 (ICVYTFDAHAHSLHAALSK(COCH2)I; thioether 2-19 (inferred)) [compound 221]”, the “Evaluation result” value is “C (0.1 or more and less than 0.5)”.

As for “222 (ICVYTFDAHAHSLHAALEK(COCH2)I; thioether 2-19 (inferred)) [compound 222]”, the “Evaluation result” value is “C (0.1 or more and less than 0.5)”.

As to “223 (ICVYTFDAHAHSLHAALRK(COCH2)I; thioether 2-19 (inferred)) [compound 223]”, the “Evaluation result” value is “A (0.7 or more)”.

“224 (ICVYTFDAHAHSLHAALHK(COCH2)I; thioether 2-19 (inferred)) [compound 224]”: the “Evaluation result” value was “A (0.7 or more)”.

For “225 (ICVYTFDAHAHSLHAALTK(COCH2)A; thioether 2-19 (inferred)) [compound 225]”, the “Evaluation result” value is “B (0.5 or more and less than 0.7)”.

Regarding “226 (ICVYTFDAHAHSLHAALTK(COCH2)L; thioether 2-19 (inferred)) [compound 226]”, the “Evaluation result” value was “C (0.1 or more and less than 0.5)”.

Take “227 (ICVYTFDAHAHSLHAALTK(COCH2)V; thioether 2-19 (inferred)) [compound 227]”: the “Evaluation result” value is given as “A (0.7 or more)”.

In the case of “228 (ICVYTFDAHAHSLHAALTK(COCH2)F; thioether 2-19 (inferred)) [compound 228]”, the “Evaluation result” value was “C (0.1 or more and less than 0.5)”.

For the substance “229 (ICVYTFDAHAHSLHAALTK(COCH2)Y; thioether 2-19 (inferred)) [compound 229]”, the “Evaluation result” value was “C (0.1 or more and less than 0.5)”.

Turning to “230 (ICVYTFDAHAHSLHAALTK(COCH2)W; thioether 2-19 (inferred)) [compound 230]”, the “Evaluation result” value is on record as “A (0.7 or more)”.

Turning to “231 (ICVYTFDAHAHSLHAALTK(COCH2)N; thioether 2-19 (inferred)) [compound 231]”, the “Evaluation result” value was “C (0.1 or more and less than 0.5)”.

“232 (ICVYTFDAHAHSLHAALTK(COCH2)Q; thioether 2-19 (inferred)) [compound 232]”: the “Evaluation result” value is given as “A (0.7 or more)”.

The record behind these values is US20260008817A1, “CYCLIC PEPTIDE OR SALT THEREOF, AND USES THEREOF” (FUJIFILM Corporation, priority 2023, published 2026).
